Measured values: publication PMC8673766 (Science Advances, 2021)

Biological target: T1, inhibin B (UniProt P05111 233-366; P09529 293-407)
T1 sequence (looked up) 1: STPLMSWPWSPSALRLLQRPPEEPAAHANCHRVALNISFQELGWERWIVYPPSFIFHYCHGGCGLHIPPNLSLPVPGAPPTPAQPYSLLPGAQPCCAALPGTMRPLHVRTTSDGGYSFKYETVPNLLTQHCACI
T1 sequence (looked up) 2: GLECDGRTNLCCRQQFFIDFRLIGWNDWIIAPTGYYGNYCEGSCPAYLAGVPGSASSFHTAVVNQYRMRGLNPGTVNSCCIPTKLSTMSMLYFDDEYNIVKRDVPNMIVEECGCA
Assay: SPR

Kd: 0.052 µM
B1: murine TGFBR3L extracellular domain (R36-R211) (domain or fragment, UniProt D3YZZ2 36-211, looked up)
chain: RRPLFSLELSDAEDAFPRRAGPLEVPADSHVFVQAALARPSPRWGLALHRCSVTPSSRPTLGPALVLLRGGCPADDSVSFSPPPRPDAASVSRFSFRLRPVFNASVQFLHCQISRCRRRSSHHRRAVRLTPVPLTPPAPLRCLPQDEACAGSSLSLGTDSPHLHMLTQPIVVTIPR
